Results reported in article PMC8191761, “The three-way junction structure of the HIV-1 PBS-segment binds host enzyme important for viral infectivity”.

Target: RHA (DHX9/RNA helicase A) (UniProt Q08211 1-1270)
Assay: EMSA; 0.5 uM RNA, 0-4 uM RHA; preferred over TAR-PolyA; EMSA: binding buffer A, 10 mM Tris-HCl pH 7.5, 140 mM KCl, 10 mM KCl (so in the source); probably NaCl), 1 mM MgCl2, 37 C 10 min, 1.5% agarose; ITC: binding buffer B
Settings: protein: recombinant; tags: N-terminal His6 and Mocr tags; label: site-specific 2H labels in some NMR samples; three-way junction

RHA (DHX9/RNA helicase A), sequence (Q08211 whole entry): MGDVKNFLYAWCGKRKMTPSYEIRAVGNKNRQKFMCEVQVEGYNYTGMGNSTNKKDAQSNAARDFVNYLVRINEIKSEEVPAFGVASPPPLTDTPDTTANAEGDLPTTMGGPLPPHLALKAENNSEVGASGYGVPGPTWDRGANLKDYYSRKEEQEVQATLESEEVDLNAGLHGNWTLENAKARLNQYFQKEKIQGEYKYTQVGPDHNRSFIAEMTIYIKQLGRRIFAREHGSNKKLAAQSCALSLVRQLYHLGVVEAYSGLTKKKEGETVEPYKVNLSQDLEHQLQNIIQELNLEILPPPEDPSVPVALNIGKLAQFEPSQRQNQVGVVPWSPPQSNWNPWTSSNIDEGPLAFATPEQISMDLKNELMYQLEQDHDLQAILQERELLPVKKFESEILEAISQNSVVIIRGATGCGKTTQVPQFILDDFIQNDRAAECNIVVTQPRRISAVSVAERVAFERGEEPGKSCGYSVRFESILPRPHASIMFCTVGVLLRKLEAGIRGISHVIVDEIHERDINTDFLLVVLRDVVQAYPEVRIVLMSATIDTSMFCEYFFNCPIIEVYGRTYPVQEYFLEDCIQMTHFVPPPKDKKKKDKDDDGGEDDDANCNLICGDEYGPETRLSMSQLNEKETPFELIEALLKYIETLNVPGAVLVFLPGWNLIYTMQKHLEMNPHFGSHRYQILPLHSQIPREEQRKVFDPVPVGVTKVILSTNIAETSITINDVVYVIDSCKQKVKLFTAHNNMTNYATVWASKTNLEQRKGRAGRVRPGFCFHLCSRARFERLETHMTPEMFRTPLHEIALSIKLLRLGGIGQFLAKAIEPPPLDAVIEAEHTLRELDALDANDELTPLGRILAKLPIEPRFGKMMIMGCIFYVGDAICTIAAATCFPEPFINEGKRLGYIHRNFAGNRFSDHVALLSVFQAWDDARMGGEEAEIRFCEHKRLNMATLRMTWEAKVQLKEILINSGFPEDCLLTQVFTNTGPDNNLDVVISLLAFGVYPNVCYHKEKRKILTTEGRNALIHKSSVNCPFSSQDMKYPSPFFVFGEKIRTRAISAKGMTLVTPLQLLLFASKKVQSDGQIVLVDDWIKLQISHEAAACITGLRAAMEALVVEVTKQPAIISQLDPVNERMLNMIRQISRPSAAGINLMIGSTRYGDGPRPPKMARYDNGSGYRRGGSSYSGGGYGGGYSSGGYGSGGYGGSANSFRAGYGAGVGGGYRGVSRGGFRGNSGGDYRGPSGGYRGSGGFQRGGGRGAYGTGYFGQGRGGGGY

B1: PBS-segment (nt 125-223) (structured_RNA)
RNA: GGCUCUGGUAACUAGAGAUCCCUCAGACCCUUUUAGUCAGUGUGGAAAAUCUCUAGCAGUGGCGCCCGAACAGGGACUUGAAAGCGAAAGUAAAGCCAGAGCC
binding result: binds
